In US20200392227A1 (LYVGEN BIOPHARMA, published 2020):
Like-named read-outs stand apart in the source and are kept apart here.

B1: anti-CD137 IgG1 with Fc variant G1m1 (antibody)
heavy: EVQLVQSGAEVKKPGESLRISCKGSGYSFSTYWISWVRQMPGKGLEWMGKIYPGDSYTNYSPSFQGQVTISADKSISTAYLQWSSLKASDTAMYYCARGYGIFDYWGQGTLVTVSSASTKGPSVFPLAPSSKSTSGGTAALGCLVKDYFPEPVTVSWNSGALTSGVHTFPAVLQSSGLYSLSSVVTVPSSSLGTQTYICNVNHKPSNTKVDKKVEPKSCDKTHTCPPCPAPELLSVFLFPPKPKDTLMISRTPEVTCVVVDVSHEDPEVKFNWYVDGVEVHNAKTKPREEQYNSTYRVVSVLTVLHQDWLNGKEYKCKVSNKALPAPIEKTISKAKGQPREPQVYTLPPSREEMTKNQVSLTCLVKGFYPSDIAVEWESNGQPENNYKTTPPVLDSDGSFFLYSKLTVDKSRWQQGNVFSCSVMHEALHNHYTQKSLSLSPGK
light: SYELTQPPSVSVSPGQTASITCSGDNIGDQYAHWYQQKPGQSPVLVIYQDKNRPSGIPERFSGSNSGNTATLTISGTQAMDEADYYCATYTGFGSLAVFGGGTKLTVLGQPKAAPSVTLFPPSSEELQANKATLVCLISDFYPGAVTVAWKADSSPVKAGVETTTPSKQSNNKYAASSYLSLTPEQWKSHRSYSCQVTHEGSTVEKTVAPTECS
notes: copies: 2 + 2
B2: anti-CD137 IgG4 with Fc variant G4m18 (antibody)
heavy: EVQLVQSGAEVKKPGESLRISCKGSGYSFSTYWISWVRQMPGKGLEWMGKIYPGDSYTNYSPSFQGQVTISADKSISTAYLQWSSLKASDTAMYYCARGYGIFDYWGQGTLVTVSSASTKGPSVFPLAPCSRSTSESTAALGCLVKDYFPEPVTVSWNSGALTSGVHTFPAVLQSSGLYSLSSVVTVPSSSLGTKTYTCNVDHKPSNTKVDKRVESKYGPPCPPCPAPEFLSVFLFPPKPKDTLMISRTPEVTCVVVDVSQEDPEVQFNWYVDGVEVHNAKTKPREEQFNSTYRVVSVLTVLHQDWLNGKEYKCKVSNKGFPSSIEKTISKAKGQPREPQVYTLPPSQEEMTKNQVSLTCLVKGFYPSDIAVEWESNGQPENNYKTTPPVLDSDGSFFLYSRLTVDKSRWQEGNVFSCSVMHEALHNHYTQKSLSLSLGK
light: B1 light
notes: copies: 2 + 2
B3: anti-CD137 IgG2 with Fc variant G2m2 (antibody)
heavy: EVQLVQSGAEVKKPGESLRISCKGSGYSFSTYWISWVRQMPGKGLEWMGKIYPGDSYTNYSPSFQGQVTISADKSISTAYLQWSSLKASDTAMYYCARGYGIFDYWGQGTLVTVSSASTKGPSVFPLAPCSRSTSESTAALGCLVKDYFPEPVTVSWNSGALTSGVHTFPAVLQSSGLYSLSSVVTVPSSNFGTQTYTCNVDHKPSNTKVDKTVERKCCVECPPCPAPPFLGGPSVFLFPPKPKDTLMISRTPEVTCVVVDVSHEDPEVQFNWYVDGVEVHNAKTKPREEQFNSTFRVVSVLTVVHQDWLNGKEYKCKVSNKGLPAPIEKTISKTKGQPREPQVYTLPPSREEMTKNQVSLTCLVKGFYPSDIAVEWESNGQPENNYKTTPPMLDSDGSFFLYSKLTVDKSRWQQGNVFSCSVMHEALHNHYTQKSLSLSPGK
light: B1 light
notes: copies: 2 + 2
B4: anti-CD137 IgG2 with Fc variant G2m10 (antibody)
heavy: EVQLVQSGAEVKKPGESLRISCKGSGYSFSTYWISWVRQMPGKGLEWMGKIYPGDSYTNYSPSFQGQVTISADKSISTAYLQWSSLKASDTAMYYCARGYGIFDYWGQGTLVTVSSASTKGPSVFPLAPCSRSTSESTAALGCLVKDYFPEPVTVSWNSGALTSGVHTFPAVLQSSGLYSLSSVVTVPSSNFGTQTYTCNVDHKPSNTKVDKTVERKCCVECPPCPAPEVSSVFLFPPKPKDTLMISRTPEVTCVVVDVSHEDPEVQFNWYVDGVEVHNAKTKPREEQFNSTFRVVSVLTVVHQDWLNGKEYKCKVSNKGFPAPIEKTISKTKGQPREPQVYTLPPSREEMTKNQVSLTCLVKGFYPSDIAVEWESNGQPENNYKTTPPMLDSDGSFFLYSKLTVDKSRWQQGNVFSCSVMHEALHNHYTQKSLSLSPGK
light: B1 light
notes: copies: 2 + 2

Legend:
[1] = biological target: T1, human FcγRIIC expressed on CHO cells (human, UniProt P31995 43-323); assay: FACS, CHO cells expressing FcγRIIC
T1 construct: whole, on cells
T1 sequence (looked up): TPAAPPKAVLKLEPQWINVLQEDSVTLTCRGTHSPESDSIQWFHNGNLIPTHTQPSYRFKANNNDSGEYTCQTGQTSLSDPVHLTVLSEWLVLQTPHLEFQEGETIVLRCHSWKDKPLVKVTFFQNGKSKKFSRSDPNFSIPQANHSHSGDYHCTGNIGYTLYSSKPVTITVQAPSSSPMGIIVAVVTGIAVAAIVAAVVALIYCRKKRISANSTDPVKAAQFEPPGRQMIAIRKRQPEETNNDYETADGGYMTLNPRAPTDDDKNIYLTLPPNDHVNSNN
Method: FIGS. 1A-1W are charts showing binding activity of various IgG variants as indicated to different types of Fcγ receptors expressed on CHO-K1 cells at the various concentrations as indicated. The concentrations of each IgG variant, from left to right, are 0 μg/ml, 0.3 μg/ml, 1 μg/ml, 3 μg/ml, and 10 μg/ml in FIGS. 1A-1C, 1E-J, 1L-1M, 1P-1R, and 1T-1V. For FIGS. 1D, 1K, 10, 1S, and 1w the bars, from left to right, correspond to the following concentrations of IgG variant: 0.3 μg/ml, 1 μg/ml, 3 μg/ml, and 10 μg/ml.
(§1) For FACS analysis of the IgG mutants' binding to different FcγRs, FcγR overexpressing CHO cells were harvested using trypsin-EDTA and were suspended in cold staining buffer (3% BSA in PBS). Test IgG mutants, which were diluted in staining buffer, were added into the cells. The mixture was incubated 4° C. for 2 hours, and then washed twice with cold staining buffer and re-suspended in PE-labeled anti-human IgG followed by incubation at 4° C. for 2 hours. The mixture was washed twice with staining buffer and re-suspended in 2% PFA in PBS for FACS.

[2] = biological target: T2, human FcRn protein (MednaBio, E1032) (human, UniProt P55899 24-297; P61769 21-119); assay: BLI
T2 construct: Bought; assays at pH 6
Method: (§2) These IgG mutants were tested for binding to a panel of human Fc receptors (FcRs), including FcRn, using the Octet Red96 System (ForteBio, Model #Red96). Human FcR proteins were purchased commercially (FcRn, MednaBio, E1032; FcRI, MednaBio, E1031; FcRIIA, MednaBio, E1033; FcRIIB/C, MednaBio, E1034; FcRIIIA-F158, MednaBio, E1036; FcRIIIA-V158, MednaBio, E1035; FcRIIIB, MednaBio, E1037). All Fey receptor assays were performed at pH 7.2; all FcRn assays were performed at pH 6. The Fey receptors were loaded onto anti-penta-HIS1K (ForteBio, Cat #18-5122) biosensors at a concentration of 20 μg/mL. The loaded biosensors was then be dipped into an 8-point 1:3 dilution series of the test IgG molecules (including controls and the mutants described herein) in PBS with 0.1% BSA, 0.02% Tween-20 (pH 7.2) at a starting concentration of 300 nM. Kinetic analysis was performed using a 1:1 binding model and global fitting.

[3] = biological target: T3, human FcRIIIA-V158 protein (MednaBio, E1035) (human, UniProt P08637 17-208); assay: BLI
T3 construct: Bought; also called FcγRIIIA(V); FcgRIIIA(V)
Method: as §2

[4] = biological target: T4, human FcRIIA protein (MednaBio, E1033) (human, UniProt P12318 34-218, limits assumed); assay: BLI
T4 construct: Bought; also called FcγRIIA
T4 sequence (looked up): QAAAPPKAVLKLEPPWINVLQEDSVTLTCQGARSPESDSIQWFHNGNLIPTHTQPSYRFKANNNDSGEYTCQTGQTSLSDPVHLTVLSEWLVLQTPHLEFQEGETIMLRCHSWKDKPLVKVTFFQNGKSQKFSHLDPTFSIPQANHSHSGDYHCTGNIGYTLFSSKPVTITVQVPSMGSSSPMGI
Method: as §2

[5] = biological target: T5, human FcRIIIA-F158 protein (MednaBio, E1036) (human, UniProt P08637 17-208); assay: BLI
T5 construct: Bought; also called FcγRIIIA(F)
Method: as §2

[6] = biological target: T6, human FcRIIB/C protein (MednaBio, E1034) (human, UniProt P31994 43-217, limits assumed); assay: BLI
T6 construct: Bought as FcRIIB/C; also called FcγRIIB; CD32B
T6 sequence (looked up): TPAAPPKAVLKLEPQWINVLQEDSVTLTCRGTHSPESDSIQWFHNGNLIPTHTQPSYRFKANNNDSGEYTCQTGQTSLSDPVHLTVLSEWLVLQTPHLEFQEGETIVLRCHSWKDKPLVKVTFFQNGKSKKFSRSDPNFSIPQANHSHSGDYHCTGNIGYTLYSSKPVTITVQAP
Method: as §2

[7] = biological target: T7, human FcRIIIB protein (MednaBio, E1037) (human, UniProt O75015 17-200); assay: BLI
T7 construct: Bought; also called FcγRIIIB; FcgRIIIB
Method: as §2

[8] = biological target: T8, human FcRI protein (MednaBio, E1031) (human, UniProt P12314 16-288, limits assumed); assay: BLI
T8 construct: Bought; loaded on anti-penta-HIS biosensors; also called FcγRI
Method: as §2

[9] = biological target: T2, human FcRn protein (MednaBio, E1032); assay: BLI; remark: listed apart in the source
Summary of the method: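 On an Octet Red96 System, anti-penta-HIS biosensors loaded with commercial human Fc receptor proteins were dipped into test IgG diluted 1:3 over 8 points from 300 nM. Fcγ receptor runs used pH 7.2 and FcRn runs used pH 6. Global fitting of these biolayer interferometry data gave the values for Kd, kon and koff, using a 1:1 binding model.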

[10] = biological target: T9, human FcγRI expressed on CHO cells (human, UniProt P12314 16-374); assay: FACS, CHO cells expressing FcγRI
T9 construct: whole, on cells
Method: as §1

T3 sequence (P08637 17-208 F176V): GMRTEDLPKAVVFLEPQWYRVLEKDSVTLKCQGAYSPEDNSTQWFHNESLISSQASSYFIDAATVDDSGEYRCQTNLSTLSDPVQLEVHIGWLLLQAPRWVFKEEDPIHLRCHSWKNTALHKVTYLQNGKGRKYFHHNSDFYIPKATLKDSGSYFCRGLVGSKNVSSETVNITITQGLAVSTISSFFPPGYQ
T8 sequence (P12314 16-288 limits assumed): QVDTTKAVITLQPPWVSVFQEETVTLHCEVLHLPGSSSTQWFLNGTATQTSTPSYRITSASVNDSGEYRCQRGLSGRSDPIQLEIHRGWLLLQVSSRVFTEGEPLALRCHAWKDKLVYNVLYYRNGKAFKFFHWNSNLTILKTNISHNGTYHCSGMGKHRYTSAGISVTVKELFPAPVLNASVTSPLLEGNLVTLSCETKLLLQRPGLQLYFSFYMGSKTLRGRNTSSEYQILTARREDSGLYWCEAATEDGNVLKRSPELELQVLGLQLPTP
T2 sequence (P55899 24-297 limits assumed, form in doubt, chain 1 of 2): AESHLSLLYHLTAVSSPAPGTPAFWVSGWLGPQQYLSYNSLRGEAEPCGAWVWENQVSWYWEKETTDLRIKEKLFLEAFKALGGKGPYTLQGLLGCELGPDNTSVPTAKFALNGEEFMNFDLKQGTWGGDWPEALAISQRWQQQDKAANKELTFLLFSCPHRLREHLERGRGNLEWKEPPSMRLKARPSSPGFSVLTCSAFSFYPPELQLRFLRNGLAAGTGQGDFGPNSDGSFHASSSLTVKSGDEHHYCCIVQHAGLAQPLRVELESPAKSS
T2 sequence (P61769 21-119 limits assumed, form in doubt, chain 2 of 2): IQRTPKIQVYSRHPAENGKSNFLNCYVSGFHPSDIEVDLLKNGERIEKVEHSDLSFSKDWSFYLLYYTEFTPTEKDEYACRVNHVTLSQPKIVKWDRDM
T7 sequence (O75015 17-200 limits assumed): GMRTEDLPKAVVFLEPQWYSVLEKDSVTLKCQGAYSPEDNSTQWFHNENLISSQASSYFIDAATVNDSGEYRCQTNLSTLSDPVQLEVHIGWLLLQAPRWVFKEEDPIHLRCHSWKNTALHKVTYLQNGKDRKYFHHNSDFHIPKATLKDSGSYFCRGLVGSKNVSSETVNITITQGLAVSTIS
T5 sequence (P08637 17-208 limits assumed): as the sequence (P08637 17-208 F176V) above, with V160F counted along it
T9 sequence (P12314 16-374): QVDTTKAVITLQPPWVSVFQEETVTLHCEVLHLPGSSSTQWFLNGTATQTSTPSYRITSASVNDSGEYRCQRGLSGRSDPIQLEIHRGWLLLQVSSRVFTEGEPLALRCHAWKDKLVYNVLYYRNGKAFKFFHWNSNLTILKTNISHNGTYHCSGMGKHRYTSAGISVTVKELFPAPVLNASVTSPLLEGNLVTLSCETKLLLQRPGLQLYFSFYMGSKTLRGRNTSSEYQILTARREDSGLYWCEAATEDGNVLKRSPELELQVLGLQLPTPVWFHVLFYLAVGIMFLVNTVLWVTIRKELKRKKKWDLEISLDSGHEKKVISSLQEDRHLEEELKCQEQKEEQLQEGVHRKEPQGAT

Binder	binding result [1]	Kd [2]	koff [2]	kon [2]	binding result [3]	Kd [4]	koff [4]	kon [4]	Kd [5]	koff [5]	kon [5]	binding result [6]	binding result [7]	Kd [8]	koff [8]	kon [8]	binding result [10]	also measured
B1	no binding (tested: 10 ug/ml)	11 nM	0.0078 s⁻¹	700000 M⁻¹ s⁻¹	no binding (tested: 300 nM)	440 nM	0.11 s⁻¹	250000 M⁻¹ s⁻¹	300 nM	0.1 s⁻¹	350000 M⁻¹ s⁻¹	no binding (tested: 300 nM)	no binding (tested: 300 nM)	200 nM	0.13 s⁻¹	650000 M⁻¹ s⁻¹		
B2																	binds	Kd [9]: 11 nM; koff [9]: 0.0068 s⁻¹; kon [9]: 610000 M⁻¹ s⁻¹
B3		10 nM	0.0091 s⁻¹	900000 M⁻¹ s⁻¹		68 nM	0.057 s⁻¹	840000 M⁻¹ s⁻¹	250 nM	0.07 s⁻¹	280000 M⁻¹ s⁻¹		no binding (tested: 300 nM)	2 nM	0.00091 s⁻¹	440000 M⁻¹ s⁻¹		Kd [3]: 160 nM; koff [3]: 0.033 s⁻¹; kon [3]: 210000 M⁻¹ s⁻¹; Kd [6]: 160 nM; koff [6]: 0.099 s⁻¹; kon [6]: 620000 M⁻¹ s⁻¹
B4	no binding (tested: 10 ug/ml)	21 nM	0.0088 s⁻¹	420000 M⁻¹ s⁻¹	no binding (tested: 300 nM)	17000 nM	0.35 s⁻¹	21000 M⁻¹ s⁻¹				no binding (tested: 300 nM)	no binding (tested: 300 nM)				no binding (tested: 10 ug/ml)	binding result [5]: no binding (tested: 300 nM); binding result [8]: no binding (tested: 300 nM)
